The record followed here is publication PMC4431670 (Structure(London, England:1993), 2015).

Assay [1] addresses T1, C-terminal domain of Not1 (Not1C), residues 1541-2093 (S. cerevisiae, UniProt P25655 1541-2093).
T1 sequence (looked up): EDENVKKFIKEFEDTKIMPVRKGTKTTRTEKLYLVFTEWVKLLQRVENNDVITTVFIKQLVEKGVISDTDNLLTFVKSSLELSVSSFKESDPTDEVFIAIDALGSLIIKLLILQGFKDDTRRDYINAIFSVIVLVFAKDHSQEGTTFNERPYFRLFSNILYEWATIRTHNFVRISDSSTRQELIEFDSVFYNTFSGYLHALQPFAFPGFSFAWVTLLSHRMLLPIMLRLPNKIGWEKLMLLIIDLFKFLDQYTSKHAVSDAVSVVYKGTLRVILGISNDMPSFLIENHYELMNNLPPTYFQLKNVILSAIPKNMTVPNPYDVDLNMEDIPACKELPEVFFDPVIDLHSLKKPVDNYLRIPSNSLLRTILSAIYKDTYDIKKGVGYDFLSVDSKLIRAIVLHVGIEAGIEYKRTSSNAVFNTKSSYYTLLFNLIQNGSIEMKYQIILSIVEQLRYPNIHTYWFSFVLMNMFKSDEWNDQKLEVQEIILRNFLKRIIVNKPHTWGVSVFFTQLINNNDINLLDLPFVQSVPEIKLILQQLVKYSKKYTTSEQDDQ
In words: pull-down.

The target of assay [2] is T1, C-terminal domain of Not1 (Not1C), …. In words: crystal structure.

B1: GST-tagged Not4C (domain or fragment, S. cerevisiae, UniProt P34909 418-477, looked up)
chain: DPYDALGNAVDFLDARLHSLSNYQKRPISIKSNIIDEETYKKYPSLFSWDKIEASKKSDN
In the case of B1, the binding result in assay [1] was “binds”.

B2: Not4C, residues 418-477 of Not4 (domain or fragment, S. cerevisiae, UniProt P34909 418-477, looked up)
chain: B1 chain
In the case of B2, in assay [2], the binding result is given as “binds”.
